Experimental data from the supplement of paper PMC9170038.

System: MS2 coat protein
Assay: apparent KD of MS2 coat protein; designed switch direction (-1 OFF switch, 1 ON switch): -1; higher = weaker reporter binding
Method in brief: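 Three titration conditions were used: no input, 200 uM small-molecule ligand, and an oligonucleotide input. In each, SNAP-549-labelled MS2 coat protein was raised from 0.7 or 1.5 nM, doubling, to 3 µM over designed RNA switches transcribed on Illumina chips by stalled E. coli RNA polymerase. Curve fits of normalised cluster fluorescence gave values whose per-design median over clusters is the apparent KD.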

[1] = Eterna round: R95, input ligand: microRNA oligo, concentration not stated
[2] = input ligand: microRNA oligo, concentration not stated
[3] = Eterna round: R95, input ligand: FMN 200 uM
[4] = Eterna round: R95, input ligand: none

Row | Sequence | apparent KD of MS2 coat protein (input ligand: FMN 200 uM) [µM] | apparent KD of MS2 coat protein (input ligand: none) [µM] | apparent KD of MS2 coat protein [1] [µM] | apparent KD of MS2 coat protein [2] [µM] | apparent KD of MS2 coat protein [3] [µM] | apparent KD of MS2 coat protein [4] [µM]
1 | CAGUACUGAGGAUAUACAUGAGGAUCACCCAUGUAAUAAUCGUAGGAAACUACGAUAUGUAGAAGGCAGUACUG [Eli x3 4.04] (Eterna round: R97, puzzle: Exclusion 3) | 0.016 | 0.0131 | – | – | – | –
2 | CAGUACUGAGGAUAUACAUGAGGAUCACCCAUGUGAGUGAUACUAGUGAGGUCGAUUAGUAGAAGGCAGUACUG [Mat X3R4 m27] (Eterna round: R97, puzzle: Exclusion 3) | 1.11 | 0.123 | – | – | – | –
3 | CAGUACUGAGGAUAUACAUGAGGAUCACCCAUGUGAUUCAGUGCACGCGUACGUGUACGUAGAAGGCAGUACUG [JL 3.27 m2] (Eterna round: R97, puzzle: Exclusion 3) | 0.761 | 0.049 | – | – | – | –
4 | CAGUACUGAGGAUAUACAUGAGGAUCACCCAUGUGCCUAAGCUAGGAUACUAGCAUUAGUAGAAGGCAGUACUG [Fiskers Ex 3 828 mod 15] (puzzle: Exclusion 3) | – | – | 0.0136 | – | – | –
5 | CAGUACUGAGGAUAUACAUGAGGAUCACCCAUGUGCUUUAGCUAGGAUACUAGCACUAGUAGAAGGCAGUACUG [Fiskers Ex 3 828 mod 10] (puzzle: Exclusion 3) | – | – | 0.0123 | – | – | –
6 | CAGUACUGAGGAUAUACAUGAGGAUCACCCAUGUGUCCCAGCUAGGAAACUAGCAAAAGUAGAAGGCAGUACUG [828 mod 2 m4] (Eterna round: R97, puzzle: Exclusion 3) | 0.622 | 0.0281 | – | – | – | –
7 | CAGUACUGAGGAUAUACAUGAGGAUCACCCAUGUGUCCCAGCUAGGAAACUAGCAAAAGUAGAAGGCAGUACUG [Fiskers Ex 3 828 mod 1] (Eterna round: R96, puzzle: Exclusion 3) | – | – | – | 0.0206 | – | –
8 | CAGUACUGAGGAUAUACAUGAGGAUCACCCAUGUGUCCCAGCUAGGAAACUAGCAAAAGUAGAAGGCAGUACUG [Fiskers Ex 3 828 mod 1] (puzzle: Exclusion 3) | – | – | 0.0244 | – | 0.42 | 0.0245
9 | CAGUACUGAGGAUAUACAUGAGGAUCACCCAUGUGUCUUCUAUUAGGAAACUAGUUAUGUAGAAGGCAGUACUG [Omei Ex3 Mod of Eli 4.27 v8] (Eterna round: R97, puzzle: Exclusion 3) | 0.221 | 0.0169 | – | – | – | –
10 | CAGUACUGAGGAUAUACAUGAGGAUCACCCAUGUGUGUGAGUUUUGGAUGAAUGUUAUGUAGAAGGCGGUGCUG [JR_Ex3_Sub036] (Eterna round: R97, puzzle: Exclusion 3) | 0.179 | 0.466 | – | – | – | –
11 | CAGUACUGAGGAUAUACAUGAGGAUCACCCAUGUGUGUGAGUUUUGUAUGAAUGUUAUGUAGAAGGCGGUGCUG [JR_Ex3_Sub034] (Eterna round: R97, puzzle: Exclusion 3) | 0.285 | 0.504 | – | – | – | –
12 | CAGUACUGAGGAUAUACAUGAGGAUCACCCAUGUGUUCCAGCUAGGAAACUAGCAAAAGUAGAAGGCAGUACUG [Ex3: 828] (Eterna round: R96, puzzle: Exclusion 3) | 0.646 | 0.0259 | – | 0.0221 | – | –
13 | CAGUACUGAGGAUAUACAUGAGGAUCACCCAUGUGUUCCAGCUAGGAAACUAGCAAAAGUAGAAGGCAGUACUG [salish99_ex3_r3_064] (puzzle: Exclusion 3) | – | – | 0.0196 | – | 0.285 | 0.0224
14 | CAGUACUGAGGAUAUACAUGAGGAUCACCCAUGUGUUCCAGCUAGGAAACUAGCAAGAGUAGAAGGCAGUACUG [salish99_ex3_r3_066] (Eterna round: R96, puzzle: Exclusion 3) | 0.543 | 0.0229 | – | 0.0185 | – | –
15 | CAGUACUGAGGAUAUACAUGAGGAUCACCCAUGUGUUCCAGCUAGGAAACUAGCAAGAGUAGAAGGCAGUACUG [salish99_ex3_r3_066] (puzzle: Exclusion 3) | – | – | 0.0241 | – | – | –
16 | CAGUACUGAGGAUAUACAUGAGGAUCACCCAUGUGUUCCAGCUAGGAAACUAGCAAGUGUAGAAGGCAGUACUG [Salish 065 m7] (Eterna round: R97, puzzle: Exclusion 3) | 1.09 | 0.41 | – | – | – | –
17 | CAGUACUGAGGAUAUACAUGAGGAUCACCCAUGUGUUCCAGCUAGGAGACUAGCAAAAGUAGAAGGCAGUACUG [salish99_ex3_r3_074] (Eterna round: R96, puzzle: Exclusion 3) | 0.523 | 0.0251 | – | 0.02 | – | –
18 | CAGUACUGAGGAUAUACAUGAGGAUCACCCAUGUGUUCCAGCUAGGAGACUAGCAAAAGUAGAAGGCAGUACUG [salish99_ex3_r3_074] (puzzle: Exclusion 3) | – | – | 0.0235 | – | – | –

Row | Sequence | apparent KD of MS2 coat protein (input ligand: FMN 200 uM) [µM] | apparent KD of MS2 coat protein (input ligand: none) [µM] | apparent KD of MS2 coat protein [1] [µM] | apparent KD of MS2 coat protein [2] [µM] | apparent KD of MS2 coat protein [3] [µM] | apparent KD of MS2 coat protein [4] [µM]
19 | CAGUACUGAGGAUAUACAUGAGGAUCACCCAUGUGUUCCAGCUAGGAUACUAGCAAGUGUAGAAGGCAGUACUG [Mat - Exclusion 3 - Eli Mod - D7] (Eterna round: R97, puzzle: Exclusion 3) | 0.188 | 0.396 | – | – | – | –
20 | CAGUACUGAGGAUAUACAUGAGGAUCACCCAUGUGUUCCAGCUAGGGAACUAGCAAAAGUAGAAGGCAGUACUG [salish99_ex3_r3_075] (Eterna round: R96, puzzle: Exclusion 3) | 0.455 | 0.025 | – | 0.0204 | – | –
21 | CAGUACUGAGGAUAUACAUGAGGAUCACCCAUGUGUUCCAGCUAGGGAACUAGCAAAAGUAGAAGGCAGUACUG [salish99_ex3_r3_075] (puzzle: Exclusion 3) | – | – | 0.0231 | – | – | –
22 | CAGUACUGAGGAUAUACAUGAGGAUCACCCAUGUUCCAAGGCUAGGAUACUAGCAAAGGUAGAAGGCAGUACUG [Mat - Exclusion 3 - Eli Mod - D26] (Eterna round: R97, puzzle: Exclusion 3) | 0.15 | 0.0176 | – | – | – | –
23 | CAUACACAUGAGGAUCACCCAUGUGAGGAUAUGCGUACGUUGUCCGUAGGCGACGUGCGCAGAAGGCGCAUGAG [JL-ex1-3.13 Eli mod] (puzzle: Exclusion 1) | – | – | 0.0909 | – | 0.0276 | 0.0916
24 | CAUACACAUGAGGAUCACCCAUGUGAGGAUAUGCGUACGUUGUCCGUAGGCGACGUGCGCAGAAGGCGCGUGUU [JL-ex1-3.15 Eli mod] (puzzle: Exclusion 1) | – | – | 0.0425 | – | – | –
25 | CAUACUCAAGUCAGGAUAUACAGUCGAAUACGGGUGUAGAAGGGACAUGAGGAUCACCCAUGUAGAGAGUAAAG [EX-4 Malc #22] (puzzle: Brourd's mod of Exclusion 4) | – | – | 0.033 | – | 0.122 | 0.0361
26 | CAUACUCAAGUCAGGAUAUGCAGUCGAAUACGGGUGUAGAAGGGACAUGAGGAUCACCCAUGUAGAGAGUAAAG [EX-4 Malc #21] (puzzle: Brourd's mod of Exclusion 4) | – | – | 0.0368 | – | 0.0998 | 0.0511
27 | CAUACUCAAGUGAGGAUAUAGUCUCGGAUACGAAACUAGAAGGCACAUGAGGAUCACCCAUGUAGAGAGUAAAG [EX-4 Malc #29] (puzzle: Brourd's mod of Exclusion 4) | – | – | 0.0185 | – | 0.0627 | 0.0131
28 | CAUACUGAAGUUAGGAUAUGCGGCCGAAUACGGGUGUAGAAGGGACAUGAGGAUCACCCAUGUAGAUAGUAAAG [EX-4 Malc #16] (puzzle: Brourd's mod of Exclusion 4) | – | – | 0.0249 | – | 0.0273 | 0.0201
29 | CAUACUGAAGUUAGGAUAUUCGAACGUAUACGGAUGGAGAAGGGACAUGAGGAUCACCCAUGUAGUUAGUAAAG [EX-4 Malc #10] (puzzle: Brourd's mod of Exclusion 4) | – | – | 0.0174 | – | 0.0173 | 0.0223
30 | CAUACUGAAGUUAGGAUAUUCGGACGUAUACGGAUGGAGAAGGGACAUGAGGAUCACCCAUGUAGAUAGUAAAG [EX-4 Malc #12] (puzzle: Brourd's mod of Exclusion 4) | – | – | 0.0231 | – | 0.0227 | 0.0223
31 | CAUAGCCGUGUAAGGAUAUCCGAUCCACGGGACAAGGAGAAGGUACAUGAGGAUCACCCAUGUAAGGGUUCCUA [Vecequve] (Eterna round: R97, puzzle: Brourd's mod of Exclusion 4) | 0.0229 | 0.0217 | – | – | – | –
32 | CAUAGUUACACAGGAUAUAGUACAUGAGGAUCACCCAUGUAAUAAAUGAGAAUUUCGAAUGUAUACUAGAAGGGUGAAAUCUAC [Ostracism 54 - Jieux - Exclusion NG 2] (Eterna round: R96, puzzle: Exclusion NG 2) | 0.206 | 0.171 | – | 0.144 | – | –
33 | CAUAUAGUAGUCAGGAUAUGCGAAUAUAUAAUUAAGUAGAAGGGACAUGAGGAUCACCCAUGUAUAUUGUAAAG [EX-4 Malc #2] (puzzle: Brourd's mod of Exclusion 4) | – | – | 0.0261 | – | 0.0269 | 0.0284
34 | CAUCUGUGAGGAUAUGGUGAGUAGUGCCUGAGCGCUGCUCACCAGAAGGCACAUGAGGAUCACCCAUGUAUGAA [Mat - Exclusion 4 - Mod of JL - D1] (puzzle: Exclusion 4) | – | – | 0.0469 | – | – | –
35 | CAUGAUCUUCGGAUCAUGUACAUGAGGAUCACCCAUGUUACGAGCUGAUUUUCAUACAAGCUUUUUGCUCGUCUUAU [Sensor v3 - Turn-off variant 1 - 30] (puzzle: Sensor v3, turn-off variant 1) | – | – | 0.317 | – | 0.0415 | 0.043
